Measurements reported in PMC9482650, “Quantitative fragmentomics allow affinity mapping of interactomes” (Nature Communications, 2022).

T1: HTRA3, P83110
T1 sequence (P83110 354-453, limits assumed, looked up): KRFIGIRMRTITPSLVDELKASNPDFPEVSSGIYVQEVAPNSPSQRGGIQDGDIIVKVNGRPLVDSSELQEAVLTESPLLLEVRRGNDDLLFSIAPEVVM

T2: MPP7, Q5T2T1
T2 sequence (Q5T2T1 134-230, limits assumed, looked up): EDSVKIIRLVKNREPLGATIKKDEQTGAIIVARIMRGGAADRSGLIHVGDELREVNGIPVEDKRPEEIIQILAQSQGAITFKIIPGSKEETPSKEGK

T3: DLG3_2, Q92796
T3 sequence (Q92796 221-321, limits assumed, looked up): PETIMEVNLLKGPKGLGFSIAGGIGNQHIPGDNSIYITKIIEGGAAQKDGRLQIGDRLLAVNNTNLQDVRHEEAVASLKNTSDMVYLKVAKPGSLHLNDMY

T4: LIN7C, Q9NUP9
T4 sequence (Q9NUP9 88-185, limits assumed, looked up): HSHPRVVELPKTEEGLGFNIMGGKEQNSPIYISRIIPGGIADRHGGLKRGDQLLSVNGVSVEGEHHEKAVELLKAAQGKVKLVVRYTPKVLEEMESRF

T5: DFNB31_2, Q9P202
T5 sequence (Q9P202 274-371, limits assumed, looked up): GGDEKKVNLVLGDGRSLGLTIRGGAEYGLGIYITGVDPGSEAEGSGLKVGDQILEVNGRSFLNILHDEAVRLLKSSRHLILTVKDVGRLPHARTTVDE

T6: GRIP1_4, Q9Y3R0
T6 sequence (Q9Y3R0 467-571, limits assumed, looked up): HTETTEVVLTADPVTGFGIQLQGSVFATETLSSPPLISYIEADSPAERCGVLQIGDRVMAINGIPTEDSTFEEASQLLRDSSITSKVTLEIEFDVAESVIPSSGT

T7: GRIP1_3, Q9Y3R0
T7 sequence (Q9Y3R0 247-346, limits assumed, looked up): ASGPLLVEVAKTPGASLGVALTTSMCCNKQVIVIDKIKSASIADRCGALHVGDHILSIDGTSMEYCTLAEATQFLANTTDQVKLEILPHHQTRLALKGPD

T8: ARHGAP21, Q5T5U3
T8 sequence (Q5T5U3 45-169, limits assumed, looked up): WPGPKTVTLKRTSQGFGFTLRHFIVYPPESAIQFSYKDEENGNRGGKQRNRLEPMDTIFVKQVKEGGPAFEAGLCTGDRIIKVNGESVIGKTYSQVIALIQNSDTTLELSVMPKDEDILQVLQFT

T9: APBA1_1, Q02410
T9 sequence (Q02410 651-752, limits assumed, looked up): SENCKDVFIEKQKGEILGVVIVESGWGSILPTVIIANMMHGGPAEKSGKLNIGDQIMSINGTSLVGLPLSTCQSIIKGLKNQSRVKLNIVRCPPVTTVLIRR

T10: PDZRN3_1, Q9UPQ7
T10 sequence (Q9UPQ7 244-349, limits assumed, looked up): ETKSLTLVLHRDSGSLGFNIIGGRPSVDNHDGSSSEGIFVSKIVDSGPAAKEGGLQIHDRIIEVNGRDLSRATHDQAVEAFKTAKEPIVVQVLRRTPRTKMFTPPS

T11: LIN7B, Q9HAP6
T11 sequence (Q9HAP6 88-185, limits assumed, looked up): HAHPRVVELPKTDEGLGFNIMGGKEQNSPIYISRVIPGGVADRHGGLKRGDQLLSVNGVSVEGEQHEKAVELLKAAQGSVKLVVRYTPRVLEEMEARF


Columns and labels:
Experiment in all cases: holdup assay
Set-up in all cases: key: below the threshold = too weak to quantify, mostly under pKd 3.1 to 4
Details in all cases: plain residues with an end cap or a label only (N-terminal biotin on a linker: ado-ado)
HTRA3, P83110 = molecular target: T1, HTRA3, P83110
GRID2IP_1, A4D2P6 = molecular target: GRID2IP_1, A4D2P6
Sequence of GRID2IP_1, A4D2P6 (A4D2P6 1-87): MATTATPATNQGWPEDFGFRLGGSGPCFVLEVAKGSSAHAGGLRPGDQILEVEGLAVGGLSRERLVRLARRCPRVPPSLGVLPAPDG

MPP7, Q5T2T1 = molecular target: T2, MPP7, Q5T2T1
CASK, O14936 = molecular target: CASK, O14936
Sequence of CASK, O14936 (O14936 487-570): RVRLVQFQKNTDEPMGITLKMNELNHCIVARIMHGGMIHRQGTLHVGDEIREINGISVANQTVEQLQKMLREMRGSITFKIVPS

MAGI2_4, Q86UL8 = molecular target: MAGI2_4, Q86UL8
Sequence of MAGI2_4, Q86UL8 (Q86UL8 772-865): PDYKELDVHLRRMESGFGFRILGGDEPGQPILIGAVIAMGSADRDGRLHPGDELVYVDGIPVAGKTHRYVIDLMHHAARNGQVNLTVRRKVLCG

FRMPD4, Q14CM0 = molecular target: FRMPD4, Q14CM0
Sequence of FRMPD4, Q14CM0 (Q14CM0 67-160): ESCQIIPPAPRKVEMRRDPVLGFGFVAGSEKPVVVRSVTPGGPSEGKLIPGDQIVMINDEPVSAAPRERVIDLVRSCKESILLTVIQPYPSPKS

FRMPD3, Q5JV73 = molecular target: FRMPD3, Q5JV73
Sequence of FRMPD3, Q5JV73 (Q5JV73 12-100): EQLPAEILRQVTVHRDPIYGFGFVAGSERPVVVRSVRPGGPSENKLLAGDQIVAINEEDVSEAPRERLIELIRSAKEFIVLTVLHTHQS

DLG3_2, Q92796 = molecular target: T3, DLG3_2, Q92796
LIN7C, Q9NUP9 = molecular target: T4, LIN7C, Q9NUP9
GRIP2_5, Q9C0E4 = molecular target: GRIP2_5, Q9C0E4
Sequence of GRIP2_5, Q9C0E4 (Q9C0E4 544-642): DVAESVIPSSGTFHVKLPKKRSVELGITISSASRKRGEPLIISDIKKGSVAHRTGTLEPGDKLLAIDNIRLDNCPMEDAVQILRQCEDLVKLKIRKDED

LNX1_1, Q8TBB1 = molecular target: LNX1_1, Q8TBB1
Sequence of LNX1_1, Q8TBB1 (Q8TBB1 261-371): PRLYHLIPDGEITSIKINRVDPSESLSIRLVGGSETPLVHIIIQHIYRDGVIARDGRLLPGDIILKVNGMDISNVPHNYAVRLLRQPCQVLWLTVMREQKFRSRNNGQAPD

NHERF4_2, Q86UT5 = molecular target: NHERF4_2, Q86UT5
Sequence of NHERF4_2, Q86UT5 (Q86UT5 220-308): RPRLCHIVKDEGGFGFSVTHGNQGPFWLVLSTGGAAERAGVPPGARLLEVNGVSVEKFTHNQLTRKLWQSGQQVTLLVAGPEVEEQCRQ

DFNB31_2, Q9P202 = molecular target: T5, DFNB31_2, Q9P202
GRIP1_4, Q9Y3R0 = molecular target: T6, GRIP1_4, Q9Y3R0
GRIP1_3, Q9Y3R0 = molecular target: T7, GRIP1_3, Q9Y3R0
Inadl_2, Q8NI35 = molecular target: Inadl_2, Q8NI35
Sequence of Inadl_2, Q8NI35 (Q8NI35 238-335): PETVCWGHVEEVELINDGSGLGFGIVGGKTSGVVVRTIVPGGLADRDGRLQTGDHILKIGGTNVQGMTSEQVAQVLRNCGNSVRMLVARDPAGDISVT

ARHGAP21, Q5T5U3 = molecular target: T8, ARHGAP21, Q5T5U3
GORASP2, Q9H8Y8 = molecular target: GORASP2, Q9H8Y8
GORASP1, Q9BQQ3 = molecular target: GORASP1, Q9BQQ3
Sequence of GORASP1, Q9BQQ3 (Q9BQQ3 1-208): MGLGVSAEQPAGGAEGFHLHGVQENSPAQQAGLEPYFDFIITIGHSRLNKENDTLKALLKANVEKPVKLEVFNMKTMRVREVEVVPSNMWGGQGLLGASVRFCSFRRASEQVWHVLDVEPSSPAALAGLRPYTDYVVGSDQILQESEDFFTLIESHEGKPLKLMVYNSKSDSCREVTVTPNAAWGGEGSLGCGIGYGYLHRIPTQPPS

GIPC2, Q8TF65 = molecular target: GIPC2, Q8TF65
Sequence of GIPC2, Q8TF65 (Q8TF65 112-203): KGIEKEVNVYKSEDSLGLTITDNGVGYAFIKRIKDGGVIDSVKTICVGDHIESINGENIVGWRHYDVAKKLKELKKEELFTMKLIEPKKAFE

APBA1_1, Q02410 = molecular target: T9, APBA1_1, Q02410
PDZRN3_1, Q9UPQ7 = molecular target: T10, PDZRN3_1, Q9UPQ7
LIN7B, Q9HAP6 = molecular target: T11, LIN7B, Q9HAP6
DLG4_1, P78352 = molecular target: DLG4_1, P78352
Sequence of DLG4_1, P78352 (P78352 62-152): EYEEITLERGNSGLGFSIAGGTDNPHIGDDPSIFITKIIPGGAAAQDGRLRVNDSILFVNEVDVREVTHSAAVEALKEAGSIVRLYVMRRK

MAGI2_3, Q86UL8 = molecular target: MAGI2_3, Q86UL8
Sequence of MAGI2_3, Q86UL8 (Q86UL8 600-682): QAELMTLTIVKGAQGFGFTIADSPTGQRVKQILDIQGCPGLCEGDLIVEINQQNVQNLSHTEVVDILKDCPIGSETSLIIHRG

pKd (HTRA3, P83110)	pKd (GRID2IP_1, A4D2P6)	pKd (MPP7, Q5T2T1)	pKd (CASK, O14936)	pKd (MAGI2_4, Q86UL8)	pKd (FRMPD4, Q14CM0)	pKd (FRMPD3, Q5JV73)	pKd (DLG3_2, Q92796)	pKd (LIN7C, Q9NUP9)	pKd (GRIP2_5, Q9C0E4)	pKd (LNX1_1, Q8TBB1)	pKd (NHERF4_2, Q86UT5)	pKd (DFNB31_2, Q9P202)	pKd (GRIP1_4, Q9Y3R0)	pKd (GRIP1_3, Q9Y3R0)	pKd (Inadl_2, Q8NI35)	pKd (ARHGAP21, Q5T5U3)	pKd (GORASP2, Q9H8Y8)	pKd (GORASP1, Q9BQQ3)	pKd (GIPC2, Q8TF65)	Binder	other results
below the threshold	below the threshold	below the threshold	below the threshold	below the threshold	4.47	below the threshold	below the threshold	below the threshold	below the threshold	below the threshold	below the threshold	below the threshold	below the threshold	below the threshold	below the threshold	4.09	below the threshold	below the threshold	below the threshold	EKKTLIGIKL [GOT1L1, Q8NHS2]	pKd (APBA1_1, Q02410): below the threshold; pKd (PDZRN3_1, Q9UPQ7): below the threshold; pKd (LIN7B, Q9HAP6): below the threshold; pKd (DLG4_1, P78352): below the threshold; pKd (MAGI2_3, Q86UL8): below the threshold
4.38	below the threshold	below the threshold	below the threshold	below the threshold	3.49	3.84	4.14	3.78	below the threshold	below the threshold	below the threshold	below the threshold	below the threshold	below the threshold	below the threshold	below the threshold	below the threshold	below the threshold	below the threshold	KKAPTNEFYA [SDC4, P31431]	pKd (APBA1_1, Q02410): below the threshold; pKd (PDZRN3_1, Q9UPQ7): below the threshold; pKd (LIN7B, Q9HAP6): 3.74; pKd (DLG4_1, P78352): below the threshold; pKd (MAGI2_3, Q86UL8): below the threshold
below the threshold	below the threshold	below the threshold	below the threshold	3.6	4.57	3.56	below the threshold	below the threshold	below the threshold	3.83	3.66	below the threshold	below the threshold	below the threshold	below the threshold	4	below the threshold	3.57	3.8	PRAEAEDSFL [PDGFRB, P09619]	pKd (APBA1_1, Q02410): 3.68; pKd (PDZRN3_1, Q9UPQ7): 3.7; pKd (LIN7B, Q9HAP6): below the threshold; pKd (DLG4_1, P78352): 3.72; pKd (MAGI2_3, Q86UL8): 3.55

More lines, now with the values behind:

Binder	pKd (HTRA3, P83110)	pKd (GRID2IP_1, A4D2P6)	pKd (MPP7, Q5T2T1)	pKd (CASK, O14936)	pKd (MAGI2_4, Q86UL8)	pKd (FRMPD4, Q14CM0)	pKd (FRMPD3, Q5JV73)	pKd (DLG3_2, Q92796)	pKd (LIN7C, Q9NUP9)	pKd (GRIP2_5, Q9C0E4)	pKd (LNX1_1, Q8TBB1)	pKd (NHERF4_2, Q86UT5)	pKd (DFNB31_2, Q9P202)	pKd (GRIP1_4, Q9Y3R0)	pKd (GRIP1_3, Q9Y3R0)	pKd (Inadl_2, Q8NI35)	pKd (ARHGAP21, Q5T5U3)	pKd (GORASP2, Q9H8Y8)	pKd (GORASP1, Q9BQQ3)	pKd (GIPC2, Q8TF65)	other results
FNSYSLTGYV [CLDN2, P57739]	4.6	below the threshold	below the threshold	below the threshold	4.24	below the threshold	below the threshold	below the threshold	below the threshold	below the threshold	3.94	below the threshold	below the threshold	below the threshold	below the threshold	below the threshold	3.94	4.36	4.14	below the threshold	pKd (APBA1_1, Q02410): below the threshold; pKd (PDZRN3_1, Q9UPQ7): below the threshold; pKd (LIN7B, Q9HAP6): below the threshold; pKd (DLG4_1, P78352): 3.51; pKd (MAGI2_3, Q86UL8): 3.63
VKPQVSESKL [ACOT8, O14734]	below the threshold	below the threshold	below the threshold	below the threshold	below the threshold	3.8	below the threshold	4.17	below the threshold	below the threshold	below the threshold	below the threshold	3.62	below the threshold	below the threshold	below the threshold	below the threshold	below the threshold	below the threshold	below the threshold	pKd (APBA1_1, Q02410): below the threshold; pKd (PDZRN3_1, Q9UPQ7): 3.68; pKd (LIN7B, Q9HAP6): 3.59; pKd (DLG4_1, P78352): below the threshold; pKd (MAGI2_3, Q86UL8): below the threshold
EALLQMESVA [CAVIN3, Q969G5]	below the threshold	below the threshold	below the threshold	below the threshold	below the threshold	below the threshold	below the threshold	4.21	below the threshold	below the threshold	3.81	below the threshold	below the threshold	below the threshold	below the threshold	below the threshold	below the threshold	below the threshold	below the threshold	3.97	pKd (APBA1_1, Q02410): below the threshold; pKd (PDZRN3_1, Q9UPQ7): below the threshold; pKd (LIN7B, Q9HAP6): 3.57; pKd (DLG4_1, P78352): below the threshold; pKd (MAGI2_3, Q86UL8): below the threshold
